Laboratory results: patent US9708383 (Novo Nordisk, dated 2017)
*1 amine or outer side, *2 acyl side, *3 side chain or, on linkers, in order; H or OH if unused. Where no end group is shown, it is not given here. Side-chain parts run from the residue outwards. [ ]: non-standard residue; d: D form. The star is where a group is joined. Decanoyl(10-(4-HOOC-PhO)) = O=C(O)c1ccc(OCCCCCCCCCC(=O)*)cc1; C18 diacid = O=C(O)CCCCCCCCCCCCCCCCC(=O)*; C16 diacid = O=C(O)CCCCCCCCCCCCCCC(=O)*; γGlu = O=C(O)[C@H](CCC(=O)[*:2])N[*:1]; Desaminohistidyl = O=C(CCc1c[nH]cn1)*; C12 diacid = O=C(O)CCCCCCCCCCC(=O)*; 13‑carboxytridecanoyl = C14 diacid; AEEA = NCCOCCOCC(=O)O; Aib = CC(C)(N)C(=O)O

B1: GLP-1 derivative of Example 37: [Aib8,Lys18,Glu22,Val25,Arg26,Lys31]-GLP-1-(7-33)-peptide amide (peptide)
peptide: H[Aib]EGTFTSDVSK([AEEA-AEEA-γGlu-13‑carboxytridecanoyl])YLEEQAVREFIAK([AEEA-AEEA-γGlu-13‑carboxytridecanoyl])LV-NH2
notes: Second site printed without its number (N^ε-)

biological target: T1, human GLP-1 receptor (human, UniProt P43220 24-463); assay: SPA, 2.0% vs 0.005% HSA
T1 construct: whole, on cells; Used as purified membranes of the transfected hamster cells, not whole cells; also called hGLP-1

Q: Which “ratio IC50 high HSA/IC50 low HSA” value does the source give for H[Aib]EGTFTSDVSK([AEEA-AEEA-γGlu-13‑carboxytridecanoyl])YLEEQAVRK([AEEA-AEEA-γGlu-13‑carboxytridecanoyl])FIAHLVG here?
A: The value was > 1.

Q: Which “ratio IC50 high HSA/IC50 low HSA” value does the source give for H[Aib]EGTFTSDVSK([AEEA-AEEA-γGlu-13‑carboxytridecanoyl])YLEEQAAREFIAK([AEEA-AEEA-γGlu-13‑carboxytridecanoyl])LVG [GLP-1 derivative of Example 16: [Aib8,Lys18,Glu22,Arg26,Lys31,Gly34]-GLP-1-(7-34)-peptide] here?
A: The value was > 1.

Q: How did the “ratio IC50 high HSA/IC50 low HSA” value turn out when [Desaminohistidyl]AEGTFTSDVSK([γGlu-AEEA-AEEA-13‑carboxytridecanoyl])YLEEQAARK([γGlu-AEEA-AEEA-13‑carboxytridecanoyl])FIAHLVG [GLP-1 derivative of Example 32: [Imp7,Lys18,Glu22,Arg26,Lys27,His31,Gly34]-GLP-1-(7-34)-peptide] was run?
A: The value was > 1.

Q: How did the “ratio IC50 high HSA/IC50 low HSA” value turn out when H[Aib]EGTFTSDVSK([AEEA-AEEA-AEEA-AEEA-γGlu-Decanoyl(10-(4-HOOC-PhO))])YLEEQAAK([AEEA-AEEA-AEEA-AEEA-γGlu-Decanoyl(10-(4-HOOC-PhO))])EFIAWLVQGRG [GLP-1 derivative of Example 69: [Aib8,Lys18,Glu22,Gln34]-GLP-1-(7-37)-peptide] was run?
A: The value was > 1.

Q: For H[Aib]EGTFTSDVSK([AEEA-AEEA-γGlu-C16 diacid])YLEEQAAK([AEEA-AEEA-γGlu-C16 diacid])EFIAWLVQGRG [GLP-1 derivative of Example 143: [Aib8,Lys18,Glu22,Gln34]-GLP-1-(7-37)-peptide], which “ratio IC50 high HSA/IC50 low HSA” value is on record?
A: The value was > 1.

Q: How did the “ratio IC50 high HSA/IC50 low HSA” value turn out when [Desaminohistidyl]AEGTFTSDVSK([AEEA-AEEA-13‑carboxytridecanoyl])YLEEQAARK([AEEA-AEEA-13‑carboxytridecanoyl])FIAHLVG [GLP-1 derivative of Example 31: [Imp7,Lys18,Glu22,Arg26,Lys27,His31,Gly34]-GLP-1-(7-34)-peptide] was run?
A: Its value is > 1.

Q: H[Aib]EGTFTSDVSK([γGlu-AEEA-AEEA-13‑carboxytridecanoyl])YLEEQAVREFIAK([γGlu-AEEA-AEEA-13‑carboxytridecanoyl])LVG [GLP-1 derivative of Example 36: [Aib8,Lys18,Glu22,Val25,Arg26,Lys31,Gly34]-GLP-1-(7-34)-peptide] was tested. Which “ratio IC50 high HSA/IC50 low HSA” value did it give?
A: Its value is > 1.

Q: How did the “ratio IC50 high HSA/IC50 low HSA” value turn out when [Desaminohistidyl]AEGTFTSDVSK([AEEA-AEEA-γGlu-C12 diacid])YLEEQAVREFIAK([AEEA-AEEA-γGlu-C12 diacid])LVG [GLP-1 derivative of Example 13: [Imp7,Lys18,Glu22,Val25,Arg26,Lys31,Gly34]-GLP-1-(7-34)-peptide] was run?
A: Its value is > 1.

Q: With H[Aib]EGTFTSDVSK([AEEA-AEEA-γGlu-C16 diacid])YLEEQAAK([AEEA-AEEA-γGlu-C16 diacid])EFIAWLVRG [GLP-1 derivative of Example 138: [Aib8,Lys18,Glu22,Arg34]-GLP-1-(7-35)-peptide] as the binder, how does the “ratio IC50 high HSA/IC50 low HSA” value read?
A: Its value is > 1.

Q: Which “ratio IC50 high HSA/IC50 low HSA” value does the source give for H[Aib]EGTFTSDVSK([AEEA-AEEA-γGlu-13‑carboxytridecanoyl])YLEGQAAHEFIK([AEEA-AEEA-γGlu-13‑carboxytridecanoyl])WLVRG [GLP-1 derivative of Example 81: [Aib8,Lys18,His26,Lys30,Arg34]-GLP-1-(7-35)-peptide] here?
A: The value was > 1.

Q: With H[Aib]EGTFTSDVSK([AEEA-AEEA-γGlu-13‑carboxytridecanoyl])YLEEQAAREFIK([AEEA-AEEA-γGlu-13‑carboxytridecanoyl])WLVRG [GLP-1 derivative of Example 83: [Aib8,Lys18,Glu22,Arg26,Lys30,Arg34]-GLP-1-(7-35)-peptide] as the binder, how does the “ratio IC50 high HSA/IC50 low HSA” value read?
A: Its value is > 1.

Q: For [Desaminohistidyl][Aib]EGTFTSDVSK([AEEA-AEEA-γGlu-13‑carboxytridecanoyl])YLEEQAVREFIAK([AEEA-AEEA-γGlu-13‑carboxytridecanoyl])LVG [GLP-1 derivative of Example 21: [Imp7,Aib8,Lys18,Glu22,Val25,Arg26,Lys31,Gly34]-GLP-1-(7-34)-peptide], which “ratio IC50 high HSA/IC50 low HSA” value is on record?
A: The value was > 1.

Q: Which “ratio IC50 high HSA/IC50 low HSA” value does the source give for H[Aib]EGTFTSDVSK([AEEA-AEEA-γGlu-Decanoyl(10-(4-HOOC-PhO))])YLEEQAVREFIAK([AEEA-AEEA-γGlu-Decanoyl(10-(4-HOOC-PhO))])LVG [GLP-1 derivative of Example 19: [Aib8,Lys18,Glu22,Val25,Arg26,Lys31,Gly34]-GLP-1-(7-34)-peptide] here?
A: Its value is > 1.

Q: With H[Aib]EGTFTSDVSK([AEEA-AEEA-γGlu-13‑carboxytridecanoyl])YLEEQAVRLFIAWLVK([AEEA-AEEA-γGlu-13‑carboxytridecanoyl]) [GLP-1 derivative of Example 63: [Aib8,Lys18,Glu22,Val25,Arg26,Leu27]-GLP-1-(7-34)-peptide] as the binder, how does the “ratio IC50 high HSA/IC50 low HSA” value read?
A: The value was > 1.

Q: Which “ratio IC50 high HSA/IC50 low HSA” value does the source give for H[Aib]EGTFTSDVSK([AEEA-AEEA-γGlu-C18 diacid])YLEEQAAK([AEEA-AEEA-γGlu-C18 diacid])EFIAWLVQGRG [GLP-1 derivative of Example 23: [Aib8,Lys18,Glu22,Gln34]-GLP-1-(7-37)-peptide] here?
A: The value was > 1.

Q: For B1, which “ratio IC50 high HSA/IC50 low HSA” value is on record?
A: The value was > 1.

biological target: T1, human GLP-1 receptor; assay: SPA, displacement of 125I-GLP-1(7-36)NH2, 0.005% HSA

Q: How did the IC50 turn out when H[Aib]EGTFTSDVSK([AEEA-AEEA-γGlu-13‑carboxytridecanoyl])YLEEQAVRK([AEEA-AEEA-γGlu-13‑carboxytridecanoyl])FIAHLVG was run?
A: The IC50 was < 1 µM.

Q: H[Aib]EGTFTSDVSK([AEEA-AEEA-γGlu-13‑carboxytridecanoyl])YLEEQAAREFIAK([AEEA-AEEA-γGlu-13‑carboxytridecanoyl])LVG [GLP-1 derivative of Example 16: [Aib8,Lys18,Glu22,Arg26,Lys31,Gly34]-GLP-1-(7-34)-peptide] was tested. Which IC50 did it give?
A: The IC50 was < 1 µM.

Q: How did the IC50 turn out when [Desaminohistidyl]AEGTFTSDVSK([γGlu-AEEA-AEEA-13‑carboxytridecanoyl])YLEEQAARK([γGlu-AEEA-AEEA-13‑carboxytridecanoyl])FIAHLVG [GLP-1 derivative of Example 32: [Imp7,Lys18,Glu22,Arg26,Lys27,His31,Gly34]-GLP-1-(7-34)-peptide] was run?
A: The IC50 was < 1 µM.

Q: For H[Aib]EGTFTSDVSK([AEEA-AEEA-AEEA-AEEA-γGlu-Decanoyl(10-(4-HOOC-PhO))])YLEEQAAK([AEEA-AEEA-AEEA-AEEA-γGlu-Decanoyl(10-(4-HOOC-PhO))])EFIAWLVQGRG [GLP-1 derivative of Example 69: [Aib8,Lys18,Glu22,Gln34]-GLP-1-(7-37)-peptide], which IC50 is on record?
A: Its IC50 is < 1 µM.

Q: H[Aib]EGTFTSDVSK([AEEA-AEEA-γGlu-C16 diacid])YLEEQAAK([AEEA-AEEA-γGlu-C16 diacid])EFIAWLVQGRG [GLP-1 derivative of Example 143: [Aib8,Lys18,Glu22,Gln34]-GLP-1-(7-37)-peptide] was tested. Which IC50 did it give?
A: The IC50 was < 1 µM.

Q: With [Desaminohistidyl]AEGTFTSDVSK([AEEA-AEEA-13‑carboxytridecanoyl])YLEEQAARK([AEEA-AEEA-13‑carboxytridecanoyl])FIAHLVG [GLP-1 derivative of Example 31: [Imp7,Lys18,Glu22,Arg26,Lys27,His31,Gly34]-GLP-1-(7-34)-peptide] as the binder, how does the IC50 read?
A: The IC50 was < 1 µM.

Q: H[Aib]EGTFTSDVSK([γGlu-AEEA-AEEA-13‑carboxytridecanoyl])YLEEQAVREFIAK([γGlu-AEEA-AEEA-13‑carboxytridecanoyl])LVG [GLP-1 derivative of Example 36: [Aib8,Lys18,Glu22,Val25,Arg26,Lys31,Gly34]-GLP-1-(7-34)-peptide] was tested. Which IC50 did it give?
A: The IC50 was < 1 µM.

Q: [Desaminohistidyl]AEGTFTSDVSK([AEEA-AEEA-γGlu-C12 diacid])YLEEQAVREFIAK([AEEA-AEEA-γGlu-C12 diacid])LVG [GLP-1 derivative of Example 13: [Imp7,Lys18,Glu22,Val25,Arg26,Lys31,Gly34]-GLP-1-(7-34)-peptide] was tested. Which IC50 did it give?
A: The IC50 was < 1 µM.

Q: Which IC50 does the source give for H[Aib]EGTFTSDVSK([AEEA-AEEA-γGlu-C16 diacid])YLEEQAAK([AEEA-AEEA-γGlu-C16 diacid])EFIAWLVRG [GLP-1 derivative of Example 138: [Aib8,Lys18,Glu22,Arg34]-GLP-1-(7-35)-peptide] here?
A: Its IC50 is < 1 µM.

Q: How did the IC50 turn out when H[Aib]EGTFTSDVSK([AEEA-AEEA-γGlu-13‑carboxytridecanoyl])YLEGQAAHEFIK([AEEA-AEEA-γGlu-13‑carboxytridecanoyl])WLVRG [GLP-1 derivative of Example 81: [Aib8,Lys18,His26,Lys30,Arg34]-GLP-1-(7-35)-peptide] was run?
A: The IC50 was < 1 µM.

Q: For H[Aib]EGTFTSDVSK([AEEA-AEEA-γGlu-13‑carboxytridecanoyl])YLEEQAAREFIK([AEEA-AEEA-γGlu-13‑carboxytridecanoyl])WLVRG [GLP-1 derivative of Example 83: [Aib8,Lys18,Glu22,Arg26,Lys30,Arg34]-GLP-1-(7-35)-peptide], which IC50 is on record?
A: The IC50 was < 1 µM.

Q: With [Desaminohistidyl][Aib]EGTFTSDVSK([AEEA-AEEA-γGlu-13‑carboxytridecanoyl])YLEEQAVREFIAK([AEEA-AEEA-γGlu-13‑carboxytridecanoyl])LVG [GLP-1 derivative of Example 21: [Imp7,Aib8,Lys18,Glu22,Val25,Arg26,Lys31,Gly34]-GLP-1-(7-34)-peptide] as the binder, how does the IC50 read?
A: Its IC50 is < 1 µM.

Q: H[Aib]EGTFTSDVSK([AEEA-AEEA-γGlu-Decanoyl(10-(4-HOOC-PhO))])YLEEQAVREFIAK([AEEA-AEEA-γGlu-Decanoyl(10-(4-HOOC-PhO))])LVG [GLP-1 derivative of Example 19: [Aib8,Lys18,Glu22,Val25,Arg26,Lys31,Gly34]-GLP-1-(7-34)-peptide] was tested. Which IC50 did it give?
A: Its IC50 is < 1 µM.

Q: How did the IC50 turn out when H[Aib]EGTFTSDVSK([AEEA-AEEA-γGlu-13‑carboxytridecanoyl])YLEEQAVRLFIAWLVK([AEEA-AEEA-γGlu-13‑carboxytridecanoyl]) [GLP-1 derivative of Example 63: [Aib8,Lys18,Glu22,Val25,Arg26,Leu27]-GLP-1-(7-34)-peptide] was run?
A: Its IC50 is < 1 µM.

Q: How did the IC50 turn out when H[Aib]EGTFTSDVSK([AEEA-AEEA-γGlu-C18 diacid])YLEEQAAK([AEEA-AEEA-γGlu-C18 diacid])EFIAWLVQGRG [GLP-1 derivative of Example 23: [Aib8,Lys18,Glu22,Gln34]-GLP-1-(7-37)-peptide] was run?
A: Its IC50 is < 1 µM.

Q: With B1 as the binder, how does the IC50 read?
A: The IC50 was < 1 µM.
